{"source": "patent US20190330354A1", "about": "(MITSUBISHI TANABE PHARMA, published 2019)", "binders": {"B1": {"name": "ABF46 (antibody, from another filing, V domains shown)", "VH": "EVKLVESGGGLVQPGGSLRLSCATSGFTFTDYYMSWVRQPPGKALEWLGFIRNKANGYTTEYSASVKGRFTISRDNSQSILYLQMDTLRAEDSATYYCARDNWFAYWGQGTLVTVSA", "VL": "DILMTQSPSSLTVSAGEKVTMSCKSSQSLLASGNQNNYLAWHQQKPGRSPKMLIIWASTRVSGVPDRFIGSGSGTDFTLTINSVQAEDLAVYYCQQSYSAPLTFGAGTKLELKR"}, "B2": {"name": "F6AP8E2 (antibody, V domains shown)", "VH": "EVQLQQSGAELVRPGALVKLSCKASGFNINDYFMHWVKQRPEQGLEWIGWIDPENGNTIYDPKFQGKASITADTSSNTAYLQLSSLTSEDTAVYYCARGGNYLRESYYYAMDYWGQGTSVTVSS", "VL": "DIVMTQSPKSMSMSVGERVTLSCKASENVGTYVSWYQQKPDQSPKLLIYGASNRYTGVPDRFTGSGSATDFTLTISSVQAEDLADYHCGQSYSYPLTFGAGTKLELKR", "notes": "Mouse monoclonal antibody"}, "B3": {"name": "F6B1P3D12 (antibody, V domains shown)", "VH": "QVQLQQSGAELAKPGASVKMSCRASGYTFTSYWMHWVKQRPGQGLDWIGYIKPSTDNTEYNQKFKDKATLTADKSSSTAYMQLSSLTSEDSAVYYCARSYGNYPLMDYWGQGTSVTVSS", "VL": "QIVLTQSPAIMSASPGEKVTLTCSASSSVTSNYLYWYQQKPGSSPKLWIYSTSNLASGVPARFSGSGSGTSYSLTISSMEAEDAASYFCHQWSSYPPTFGSGTKLEIKR", "notes": "Mouse monoclonal antibody from a hybridoma; also called Mouse P3D12; P3D12(mouse)"}, "B4": {"name": "F6B1P1E2 (antibody, V domains shown)", "VH": "B3 VH with R23K, D46E, K52N, N57Y, S77T, A97V", "VL": "B3 VL with T30S, Q38H, A61V", "notes": "Mouse monoclonal antibody"}, "B5": {"name": "F6BP2D4 (antibody, V domains shown)", "VH": "B3 VH with R23K, D46E, K52N, N57Y, T58I, D73G, Y103F", "VL": "B3 VL with T30S, A61V", "notes": "Mouse monoclonal antibody"}, "B6": {"name": "F5P5B9 (antibody, V domains shown)", "VH": "QVQLKESGPGLVAPSQSLSITCTVSGFSLTNYGVNWVRQPPGKGLEWLGLIWGGGDTDYNSALKSRLSISKDNSKSQVFLKMETNSLQTDDTARYYCARDYYGFDYWGQGTTLTVSS", "VL": "DVLMTQTPLSLPVSLGDQASISCRSSQTIVHGTGNTYLEWYLQKPGQSPKLLIYKVSNRFSGVPDRFSGSGSGTDFTLKISRVEAEDLGVYYCFQGSHVPYTFGGGTKLEIKR", "notes": "Mouse monoclonal antibody"}, "B7": {"name": "G2akv (antibody, V domains shown)", "VH": "QVQLVQSGAEVKKPGASVKVSCKASGYTFTSYWMHWVKQAPGQGLDWMGYIKPSTDNTEYAQKFQGRVTLTADKSTSTAYMELSSLRSEDTAVYYCARSYGNYPLMDYWGQGTTVTVSS", "VL": "B3 VL with I10T, K18R, T22S, K46R, S73T, S78R, A81P", "notes": "As G2aka; reported insoluble in PBS; also called humanized P3D12, HC VH-abb/sdr, LC ven"}, "B8": {"name": "G2vka (antibody, V domains shown)", "VH": "B3 VH with Q5V, L11V, R23K, R40A, S76T, T87R, S91T, S114T", "VL": "QIVLTQSPATLSLSPGERATLSCRASQSVTSNYLYWYQQKPGSSPRLLIYSTSNLASGVPARFSGSGSGTDYTLTISRLEPEDFASYFCHQWSSYPPTFGSGTKLEIKR", "notes": "As G2aka; also called humanized P3D12, HC VH-ven, LC abb/sdr"}, "B9": {"name": "G2vkc (antibody, V domains shown)", "VH": "B3 VH with Q5V, L11V, R23K, R40A, S76T, T87R, S91T, S114T", "VL": "B8 VL with R24S, Q27S, D71S", "notes": "As G2aka; also called humanized P3D12, HC VH-ven, LC cdr"}, "B10": {"name": "G2vkv (antibody, V domains shown)", "VH": "B3 VH with Q5V, L11V, R23K, R40A, S76T, T87R, S91T, S114T", "VL": "B3 VL with I10T, K18R, T22S, K46R, S73T, S78R, A81P", "notes": "As G2aka; reported insoluble in PBS; also called humanized P3D12, HC VH-ven, LC ven"}, "B11": {"name": "G2akc (antibody, V domains shown)", "VH": "B7 VH", "VL": "B8 VL with R24S, Q27S, D71S", "notes": "As G2aka; also called humanized P3D12, HC VH-abb/sdr, LC cdr"}, "B12": {"name": "G2vkf (antibody, V domains shown)", "VH": "B3 VH with Q5V, L11V, R23K, R40A, S76T, T87R, S91T, S114T", "VL": "B3 VL with M11L, A13L, K18R, V19A, T22S, W48L, S73T, M79L", "notes": "As G2aka; also called humanized P3D12, HC VH-ven, LC fra"}}, "key": {"[1]": {"biological_target": "human cMET-Fc fusion protein (human) [IgG part: P01857]", "test": "SPR with hMet-Fc"}, "rat cMET [2]": {"biological_target": "T1, rat cMET (rat, UniProt P97523 25-935, limits assumed)", "T1 construct": "ELISA antigen; also called rMET", "test": "ELISA, antibody titrated on cMet of the named species, OD 450 nm"}, "Canine [3]": {"biological_target": "T2, Canine (limits assumed)", "T2 construct": "also called canine cMet; dog cMET", "T2 receptor": "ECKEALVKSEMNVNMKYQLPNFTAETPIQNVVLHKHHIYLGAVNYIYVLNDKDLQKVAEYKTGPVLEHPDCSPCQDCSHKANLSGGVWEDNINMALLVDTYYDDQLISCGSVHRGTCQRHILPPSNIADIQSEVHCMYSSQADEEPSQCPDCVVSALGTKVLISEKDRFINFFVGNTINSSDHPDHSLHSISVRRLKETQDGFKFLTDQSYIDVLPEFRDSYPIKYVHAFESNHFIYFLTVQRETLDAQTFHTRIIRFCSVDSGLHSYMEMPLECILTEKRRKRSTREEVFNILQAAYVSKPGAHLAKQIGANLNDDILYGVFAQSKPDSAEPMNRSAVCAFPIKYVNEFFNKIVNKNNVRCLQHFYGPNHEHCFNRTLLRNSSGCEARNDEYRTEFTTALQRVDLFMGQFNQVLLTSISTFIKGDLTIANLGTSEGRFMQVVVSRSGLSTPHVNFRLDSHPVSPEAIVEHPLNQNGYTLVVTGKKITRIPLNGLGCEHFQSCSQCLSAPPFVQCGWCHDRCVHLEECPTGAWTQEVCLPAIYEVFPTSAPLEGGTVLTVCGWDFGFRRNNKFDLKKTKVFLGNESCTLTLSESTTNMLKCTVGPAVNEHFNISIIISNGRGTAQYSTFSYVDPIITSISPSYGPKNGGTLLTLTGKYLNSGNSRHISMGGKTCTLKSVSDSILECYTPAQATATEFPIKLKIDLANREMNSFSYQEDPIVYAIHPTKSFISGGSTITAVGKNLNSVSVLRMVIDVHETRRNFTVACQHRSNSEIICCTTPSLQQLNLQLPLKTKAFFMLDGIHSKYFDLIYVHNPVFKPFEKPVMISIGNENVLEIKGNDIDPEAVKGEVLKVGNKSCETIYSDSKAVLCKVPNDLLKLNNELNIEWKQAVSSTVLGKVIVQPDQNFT", "test": "ELISA, antibody titrated on cMet of the named species, OD 450 nm"}, "mouse cMET [4]": {"biological_target": "T3, mouse cMET (mouse, UniProt P16056 25-931, limits assumed)", "T3 construct": "ELISA antigen", "test": "ELISA, antibody titrated on cMet of the named species, OD 450 nm"}, "Canine [5]": {"biological_target": "T2, Canine", "test": "ELISA, antibody titrated on cMet of the named species, OD 450 nm"}, "mouse cMET [6]": {"biological_target": "T3, mouse cMET", "test": "ELISA, antibody titrated on cMet of the named species, OD 450 nm", "remark": "listed apart in the source"}, "Canine [7]": {"biological_target": "T2, Canine", "test": "ELISA, antibody titrated on cMet of the named species, OD 450 nm"}, "mouse cMET [8]": {"biological_target": "T3, mouse cMET", "test": "ELISA, antibody titrated on cMet of the named species, OD 450 nm", "remark": "listed apart in the source"}, "Canine [9]": {"biological_target": "T2, Canine", "test": "ELISA, antibody titrated on cMet of the named species, OD 450 nm"}, "mouse cMET [10]": {"biological_target": "T3, mouse cMET", "test": "ELISA, antibody titrated on cMet of the named species, OD 450 nm", "remark": "listed apart in the source"}, "rat cMET [11]": {"biological_target": "T1, rat cMET", "test": "ELISA, antibody titrated on cMet of the named species, OD 450 nm", "remark": "listed apart in the source"}, "Canine [12]": {"biological_target": "T2, Canine", "test": "ELISA, antibody titrated on cMet of the named species, OD 450 nm"}, "mouse cMET [13]": {"biological_target": "T3, mouse cMET", "test": "ELISA, antibody titrated on cMet of the named species, OD 450 nm", "remark": "listed apart in the source"}, "rat cMET [14]": {"biological_target": "T1, rat cMET", "test": "ELISA on rat cMET, ratio to parental P3D12"}, "human cMET": {"biological_target": "T4, human cMET (human, UniProt P08581 25-932, limits assumed)", "T4 construct": "also called hMET", "T4 sequence (P08581 25-932 limits assumed)": "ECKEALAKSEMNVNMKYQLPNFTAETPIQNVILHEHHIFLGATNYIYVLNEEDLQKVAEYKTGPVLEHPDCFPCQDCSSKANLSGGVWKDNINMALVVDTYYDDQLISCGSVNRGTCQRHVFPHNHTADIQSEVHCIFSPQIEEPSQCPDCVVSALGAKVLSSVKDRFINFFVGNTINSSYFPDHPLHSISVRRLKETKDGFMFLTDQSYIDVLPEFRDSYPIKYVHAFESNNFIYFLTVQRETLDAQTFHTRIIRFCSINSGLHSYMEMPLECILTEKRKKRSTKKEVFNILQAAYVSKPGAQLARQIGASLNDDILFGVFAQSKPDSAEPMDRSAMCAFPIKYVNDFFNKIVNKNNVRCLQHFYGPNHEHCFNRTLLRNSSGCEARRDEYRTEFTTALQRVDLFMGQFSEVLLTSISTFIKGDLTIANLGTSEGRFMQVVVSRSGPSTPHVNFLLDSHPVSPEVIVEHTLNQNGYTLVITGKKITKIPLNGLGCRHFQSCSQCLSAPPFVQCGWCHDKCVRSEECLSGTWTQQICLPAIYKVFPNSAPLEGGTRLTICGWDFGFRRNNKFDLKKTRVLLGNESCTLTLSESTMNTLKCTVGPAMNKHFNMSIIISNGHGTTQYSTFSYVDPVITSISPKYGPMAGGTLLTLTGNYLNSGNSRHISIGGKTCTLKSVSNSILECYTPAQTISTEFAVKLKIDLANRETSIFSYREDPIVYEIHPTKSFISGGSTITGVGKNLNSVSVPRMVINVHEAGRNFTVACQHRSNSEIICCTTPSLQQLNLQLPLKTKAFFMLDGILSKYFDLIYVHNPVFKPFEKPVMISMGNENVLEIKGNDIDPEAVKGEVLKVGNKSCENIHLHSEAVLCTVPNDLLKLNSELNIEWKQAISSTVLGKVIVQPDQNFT", "test": "ELISA on human cMET, ratio to parental P3D12"}}, "note": "Residue numbers refer to the chain shown, from its start. Like-named read-outs stand apart in the source and are kept apart here."}
{"binder": "B1", "values": [{"measurement": "Kd", "setting": "[1]", "result": 0.7, "unit": "nM"}]}
{"binder": "B2", "values": [{"measurement": "binding result", "setting": "rat cMET [2]", "result": "no binding (tested: 10 ug/mL (axis value 1, log10))"}, {"measurement": "binding result", "setting": "Canine [3]", "result": "no binding (tested: 10 ug/mL (axis value 1, log10))"}, {"measurement": "binding result", "setting": "mouse cMET [4]", "result": "no binding (tested: 10 ug/mL (axis value 1, log10))"}]}
{"binder": "B3", "values": [{"measurement": "binding result", "setting": "Canine [5]", "result": "no binding (tested: 10 ug/mL (axis value 1, log10))"}, {"measurement": "binding result", "setting": "mouse cMET [6]", "result": "no binding (tested: 10 ug/mL (axis value 1, log10))"}]}
{"binder": "B4", "values": [{"measurement": "binding result", "setting": "Canine [7]", "result": "no binding (tested: 10 ug/mL (axis value 1, log10))"}, {"measurement": "binding result", "setting": "mouse cMET [8]", "result": "no binding (tested: 10 ug/mL (axis value 1, log10))"}]}
{"binder": "B5", "values": [{"measurement": "binding result", "setting": "Canine [9]", "result": "no binding (tested: 10 ug/mL (axis value 1, log10))"}, {"measurement": "binding result", "setting": "mouse cMET [10]", "result": "no binding (tested: 10 ug/mL (axis value 1, log10))"}]}
{"binder": "B6", "values": [{"measurement": "binding result", "setting": "rat cMET [11]", "result": "no binding (tested: 10 ug/mL)"}, {"measurement": "binding result", "setting": "Canine [12]", "result": "no binding (tested: 10 ug/mL)"}, {"measurement": "binding result", "setting": "mouse cMET [13]", "result": "no binding (tested: 10 ug/mL)"}]}
{"binder": "B7", "values": [{"measurement": "ELISA rMET vs parental", "setting": "rat cMET [14]", "result": 1.3}, {"measurement": "ELISA hMET vs parental", "setting": "human cMET", "result": 1.8}]}
{"binder": "B8", "values": [{"measurement": "ELISA rMET vs parental", "setting": "rat cMET [14]", "result": 2.7}, {"measurement": "ELISA hMET vs parental", "setting": "human cMET", "result": 0.9}]}
{"binder": "B9", "values": [{"measurement": "ELISA rMET vs parental", "setting": "rat cMET [14]", "result": 1.9}, {"measurement": "ELISA hMET vs parental", "setting": "human cMET", "result": 1.1}]}
{"binder": "B10", "values": [{"measurement": "ELISA rMET vs parental", "setting": "rat cMET [14]", "result": 1.6}, {"measurement": "ELISA hMET vs parental", "setting": "human cMET", "result": 1.8}]}
{"binder": "B11", "values": [{"measurement": "ELISA rMET vs parental", "setting": "rat cMET [14]", "result": 0.7}, {"measurement": "ELISA hMET vs parental", "setting": "human cMET", "result": 1.3}]}
{"binder": "B12", "values": [{"measurement": "ELISA rMET vs parental", "setting": "rat cMET [14]", "result": 1}, {"measurement": "ELISA hMET vs parental", "setting": "human cMET", "result": 1.1}]}
